One may read the stoichiometry N as a count of units in the complex or per binding partner.

This is an account of results in article PMC11276676.

Holding throughout (experiment): AUC; sedimentation velocity, absorbance detection, 20 °C, 20 mM Hepes-NaOH with 1 mM TCEP, without (pH 6.79) or with (pH 6.87) 150 mM NaCl, 42,000 rpm, protein 1.30-1.53 and 2.73-5.98 µM; monomer to dimer
The target of experiment [1] is Helicobacter pylori adenylosuccinate synthetase with His6-tag fused on its N-terminus (Helicobacter pylori (reference strain 26695)) (UniProt P56137).
Experiment [2] concerns the target Helicobacter pylori adenylosuccinate synthetase with His6-tag on the C-terminus (Helicobacter pylori (reference strain 26695)) (UniProt P56137).
For experiment [3], the target named is wild-type Helicobacter pylori adenylosuccinate synthetase (Helicobacter pylori (reference strain 26695)) (UniProt P56137).

“Helicobacter pylori adenylosuccinate synthetase with His6-tag fused on its N-terminus (from UniProt P56137 1-411) (enzyme)”: the stoichiometry N in experiment [1] turned out to be 2.
In turn, “Helicobacter pylori adenylosuccinate synthetase with His6-tag on the C-terminus (from UniProt P56137 1-411) (enzyme)” came in with a stoichiometry N in experiment [2] of 2.
In experiment [3], “wild-type Helicobacter pylori adenylosuccinate synthetase (from UniProt P56137 1-411) (enzyme)” displayed a stoichiometry N of 2.
